B1: Cit2 (full-length, HisSUMO1-tag cleaved) (enzyme, S. cerevisiae, UniProt P08679 1-460, looked up)
chain: MTVPYLNSNRNVASYLQSNSSQEKTLKERFSEIYPIHAQDVRQFVKEHGKTKISDVLLEQVYGGMRGIPGSVWEGSVLDPEDGIRFRGRTIADIQKDLPKAKGSSQPLPEALFWLLLTGEVPTQAQVENLSADLMSRSELPSHVVQLLDNLPKDLHPMAQFSIAVTALESESKFAKAYAQGISKQDYWSYTFEDSLDLLGKLPVIAAKIYRNVFKDGKMGEVDPNADYAKNLVNLIGSKDEDFVDLMRLYLTIHSDHEGGNVSAHTSHLVGSALSSPYLSLASGLNGLAGPLHGRANQEVLEWLFALKEEVNDDYSKDTIEKYLWDTLNSGRVIPGYGHAVLRKTDPRYMAQRKFAMDHFPDYELFKLVSSIYEVAPGVLTEHGKTKNPWPNVDAHSGVLLQYYGLKESSFYTVLFGVSRAFGILAQLITDRAIGASIERPKSYSTEKYKELVKNIESKL
B2: MBP-Cit1(Δ1–37) (enzyme, S. cerevisiae, UniProt P00890 38-479, looked up)
chain: SSASEQTLKERFAEIIPAKAEEIKKFKKEHGKTVIGEVLLEQAYGGMRGIKGLVWEGSVLDPEEGIRFRGRTIPEIQRELPKAEGSTEPLPEALFWLLLTGEIPTDAQVKALSADLAARSEIPEHVIQLLDSLPKDLHPMAQFSIAVTALESESKFAKAYAQGVSKKEYWSYTFEDSLDLLGKLPVIASKIYRNVFKDGKITSTDPNADYGKNLAQLLGYENKDFIDLMRLYLTIHSDHEGGNVSAHTTHLVGSALSSPYLSLAAGLNGLAGPLHGRANQEVLEWLFKLREEVKGDYSKETIEKYLWDTLNAGRVVPGYGHAVLRKTDPRYTAQREFALKHFPDYELFKLVSTIYEVAPGVLTKHGKTKNPWPNVDSHSGVLLQYYGLTEASFYTVLFGVARAIGVLPQLIIDRAVGAPIERPKSFSTEKYKELVKKIESKN

Assays:
crystal structure = target: the molecule itself; assay: crystal structure
Ucc1-Skp1(FL) complex = Ucc1-Skp1(FL) complex (S. cerevisiae, UniProt Q05947 1-369; P52286 1-194); assay: pull-down
Ucc1-Skp1(FL) complex, sequence (Q05947 whole entry, chain 1 of 2): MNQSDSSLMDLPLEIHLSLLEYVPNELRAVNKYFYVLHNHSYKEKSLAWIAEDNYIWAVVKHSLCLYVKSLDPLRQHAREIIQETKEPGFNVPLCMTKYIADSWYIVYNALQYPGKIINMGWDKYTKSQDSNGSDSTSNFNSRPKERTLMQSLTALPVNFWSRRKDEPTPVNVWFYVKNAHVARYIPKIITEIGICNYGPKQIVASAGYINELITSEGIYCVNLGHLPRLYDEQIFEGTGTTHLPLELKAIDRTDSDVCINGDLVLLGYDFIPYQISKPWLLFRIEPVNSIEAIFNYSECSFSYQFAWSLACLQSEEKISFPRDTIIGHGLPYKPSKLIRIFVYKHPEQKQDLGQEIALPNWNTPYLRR
Ucc1-Skp1(FL) complex, sequence (P52286 whole entry, chain 2 of 2): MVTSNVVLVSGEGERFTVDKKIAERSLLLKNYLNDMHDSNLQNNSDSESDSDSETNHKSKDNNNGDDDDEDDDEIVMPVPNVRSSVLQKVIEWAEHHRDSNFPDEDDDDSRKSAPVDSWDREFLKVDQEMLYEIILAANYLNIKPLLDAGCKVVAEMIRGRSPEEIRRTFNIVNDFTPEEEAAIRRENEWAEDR

Binder	stoichiometry N (crystal structure)	binding result (Ucc1-Skp1(FL) complex)
B1	2	
B2		binds

— article PMC10104474 (Science Advances, 2023)
